The results in this text go back to publication doi:10.1101/733147 (bioRxiv, 2020).

The target in the test is T1, human ACVR2B.Fc fusion protein (human, UniProt Q13705).
T1 sequence: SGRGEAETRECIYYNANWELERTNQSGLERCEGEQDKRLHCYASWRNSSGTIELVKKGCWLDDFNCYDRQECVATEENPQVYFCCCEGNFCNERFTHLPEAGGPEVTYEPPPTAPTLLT
Kind of test: SPR. For orientation: In SPR one partner is held on a chip, and binding of the other changes the refractive index at the surface.

B1: Activin A.ΔD406 (ligand)
chain: GLECDGKVNICCKKQFFVSFKDIGWNDWIIAPSGYHANYCEGECPSHIAGTSGSSLSFHSTVINHYRMRGHSPFANLKSCCVPTKLRPMSMLYYDGQNIIKKDIQNMIVEECGCS
With B1, the binding result was “binds”.

B2: Activin A (wild type, mature dimer) (ligand)
chain: GLECDGKVNICCKKQFFVSFKDIGWNDWIIAPSGYHANYCEGECPSHIAGTSGSSLSFHSTVINHYRMRGHSPFANLKSCCVPTKLRPMSMLYYDDGQNIIKKDIQNMIVEECGCS
With B2, the binding result was “binds”.
